Data published in patent publication US20090263836A1.
Values joined by “and” are separate entries in the source; they are usually repeats but may differ in a detail not shown here. Equal values may be shown once. Read-outs that look alike come from different tables or passages of the source.

What was measured:
[1] = target: BoNT/A binding domain (rBoNT/A-HC) (Clostridium botulinum)
[2] = target: BoNT/A binding domain (rBoNT/A-HC) (Clostridium botulinum); remark: listed apart in the source

Sequence of BoNT/A binding domain (rBoNT/A-HC) (Clostridium botulinum) (P0DPI1 873-1296): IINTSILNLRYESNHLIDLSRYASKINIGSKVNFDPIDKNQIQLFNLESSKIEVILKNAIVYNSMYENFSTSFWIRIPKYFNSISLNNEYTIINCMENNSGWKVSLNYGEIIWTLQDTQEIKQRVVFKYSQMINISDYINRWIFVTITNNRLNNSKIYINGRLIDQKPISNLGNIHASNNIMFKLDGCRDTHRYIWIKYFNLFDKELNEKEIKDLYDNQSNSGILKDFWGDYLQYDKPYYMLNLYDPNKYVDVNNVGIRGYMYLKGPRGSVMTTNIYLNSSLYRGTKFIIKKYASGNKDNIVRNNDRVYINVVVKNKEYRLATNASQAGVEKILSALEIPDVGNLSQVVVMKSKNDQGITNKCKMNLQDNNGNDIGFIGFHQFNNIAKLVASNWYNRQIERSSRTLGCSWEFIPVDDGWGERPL

Row | Substance | RUMax [1] | Percentage increase [1] | Percentage increase [2] | RUMax [2]
1 | FGFR1 (transfected, pReceiver-M02/FGFR1) (receptor) | 480 RU and 470 RU and 330 RU |  |  | 
2 | FGFR2 (transfected, pReceiver-M02/FGFR2) (receptor) | 510 RU and 460 RU and 450 RU | 46% and 24% and 40% |  | 
3 | FGFR3 (transfected, pReceiver-M02/FGFR3) (receptor) | 510 RU and 450 RU | 46% and 38% and 40% | 73% | 225 RU and 110 RU
4 | FGFR3 and SV2C co-transfected |  |  | 27% and 13% | 165 RU and 90 RU
5 | SV2C (transfected, pReceiver-M02/SV2C) (receptor) |  |  | 8% and 6% | 140 RU and 85 RU
